In this data set the target is T1, NtbZIP (Nicotiana tabacum, UniProt Q4PKH1 1-400).
T1 sequence: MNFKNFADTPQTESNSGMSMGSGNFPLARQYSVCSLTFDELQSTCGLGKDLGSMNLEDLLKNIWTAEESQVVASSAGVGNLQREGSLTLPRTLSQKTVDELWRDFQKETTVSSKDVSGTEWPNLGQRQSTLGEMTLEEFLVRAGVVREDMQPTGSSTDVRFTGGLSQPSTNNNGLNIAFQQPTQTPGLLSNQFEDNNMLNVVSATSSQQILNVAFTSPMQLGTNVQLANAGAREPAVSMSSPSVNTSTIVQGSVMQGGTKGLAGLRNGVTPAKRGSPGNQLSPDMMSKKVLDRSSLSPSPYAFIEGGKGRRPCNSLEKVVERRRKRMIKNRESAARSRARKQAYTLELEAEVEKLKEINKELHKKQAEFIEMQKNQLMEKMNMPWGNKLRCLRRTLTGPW
As to the kind of experiment: EMSA. For orientation: Mobility shift assays separate free from complexed probe on a gel.

B1: 4x G-box of PNZIP promoter (dsDNA)
DNA 1: GCCACGTGTCGCCACGTGTCGCCACGTGTCGCCACGTGTC
DNA 2: GACACGTGGCGACACGTGGCGACACGTGGCGACACGTGGC
Take B1: the binding result is reported as “binds”.

Values taken from PMC2677881.
